In FireProtDB (doi:10.1110/ps.041111405):

Settings: Homo sapiens; pH 7; 37 °C; GdnHCl; Fluorescence; Sodium phosphate 10 mM; transition: 3; whole UniProt chain shown

B1: Gamma-crystallin D wild type, P07320 (protein)
chain: MGKITLYEDRGFQGRHYECSSDHPNLQPYLSRCNSARVDSGCWMLYEQPNYSGLQYFLRRGDYADHQQWMGLSDSVRSCRLIPHSGSHRIRLYEREDYRGQMIEFTEDCSCLQDRFRFNEIHSLNVLEGSWVLYELSNYRGRQYLLMPGDYRRYQDWGATNARVGSLRRVIDFS
- denaturant m value: 3.1 kcal/mol/M
- denaturant midpoint (higher = more stable): 2.8 M
- unfolding free energy: 8.9 kcal/mol
